± gives the standard error.
B1: library; numbered along this chain (parent)
chain: MATDAALRRLLRLHRTEIAVAVDSAFPLLHALADHDVVPEDKFQETLHLKEKEGCPQAFHALLSWLLTQDSTAILDFWRVLFKDYNLERYGRLQPILDSFPKDVDLSQPRKGRKPPAVPKALVPPPRLPTKRKASEEARAAAPAALTPRGTASPGSQLKAKPPKKPESSAEQQRLPLGNGIQTMSASVQRAVAMSSGDVPGARGAVEGILIQQVFESGGSKKCIQVGGEFYTPSKFEDSGSGKNKARSSSGPKPLVRAKGAQGAAPGGGEARLGQQGSVPAPLALPSDPQLHQKNEDECAVCRDGGELICCDGCPRAFHLACLSPPLREIPSGTWRCSSCLQATVQEVQPRAEEPRPQEPPVETPLPPGLRSAGEEVRGPPGEPLAGMDTTLVYKHLPAPPSAAPLPGLDSSALHPLLCVGPEGQQNLAPGARCGVCGDGTDVLRCTHCAAAFHWRCHFPAGTSRPGTGLRCRSCSGDVTPAPVEGVLAPSPARLAPGPAKDDTASHEPALHRDDLESLLSEHTFDGILQWAIQSMARPAAPFPS

Variants of: B1
Assay: AIRE transcriptional activation functional score (insulin promoter-GFP; nonsense median 0, synonymous median 1) (normalised score); higher = higher AIRE activity (more reporter activation)
Conditions: with insulin promoter-GFP reporter in HEK293
In short: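 Flp-In T-REx HEK293 landing-pad cells carrying an insulin core promoter-GFP reporter received codon-optimized AIRE NNN-codon libraries (three regions) through Bxb1 recombinase. Sorting of mCherry+, BFP− integrants took place at day 7, followed by 7 days of expansion and tile-sequencing of top 10% GFP and unselected integrant populations. A functional score was derived from select versus non-select variant enrichment with wild type subtracted. Values from variants reaching 10 counts per million in non-select were set to nonsense median 0 and synonymous median 1 and averaged over biological replicates.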

Q57A and L409N are within error of each other in “AIRE transcriptional activation functional score” value: 1.25 ± 0.88 for the first, 0.459 ± 0.12 for the second.

H292A and H292S are within error of each other in “AIRE transcriptional activation functional score” value: 0.816 ± 0.34 for the first, 0.599 ± 0.16 for the second.

P497V and E53S are within error of each other in “AIRE transcriptional activation functional score” value: 1.19 ± 0.32 for the first, 0.701 ± 0.54 for the second.

Compared with E53F, D389H is higher in “AIRE transcriptional activation functional score” value: 0.611 ± 0.43 for the first, 1.2 ± 0.07 for the second.

First: D389M
Second: D198G
The “AIRE transcriptional activation functional score” value of the first is lower: -0.143 ± 0.096 for the first, 1.08 ± 0.24 for the second.

D410L and S491I are within error of each other in “AIRE transcriptional activation functional score” value: 1.08 ± 0.15 for the first, 1.1 ± 0.2 for the second.

First: S491A
Second: G387L
The “AIRE transcriptional activation functional score” value of the first is lower: 0.995 ± 0.14 for the first, 1.35 ± 0.061 for the second.

Compared with D526L, G227E is higher in “AIRE transcriptional activation functional score” value: -0.764 ± 0.23 for the first, 0.368 ± 0.087 for the second.

R110P and P381T are within error of each other in “AIRE transcriptional activation functional score” value: 0.621 ± 0.078 for the first, 0.929 ± 0.28 for the second.

First: L146D
Second: L146Q
The “AIRE transcriptional activation functional score” value of the first is higher: 1.73 ± 0.13 for the first, 1.05 ± 0.36 for the second.

First: D84A
Second: S107F
The “AIRE transcriptional activation functional score” value of the first is lower: 0.125 ± 0.24 for the first, 0.789 ± 0.42 for the second.

E296I and E296C are within error of each other in “AIRE transcriptional activation functional score” value: 0.711 ± 0.53 for the first, 0.394 ± 0.58 for the second.

Compared with L520D, P39Y is lower in “AIRE transcriptional activation functional score” value: 0.849 ± 0.094 for the first, -1.28 ± 0.23 for the second.

First: D439R
Second: E136Y
The “AIRE transcriptional activation functional score” value of the first is lower: 0.536 ± 0.33 for the first, 1.32 ± 0.34 for the second.

P380T and G155E are within error of each other in “AIRE transcriptional activation functional score” value: 1.45 ± 0.17 for the first, 0.777 ± 0.83 for the second.

G155Y and F82S are within error of each other in “AIRE transcriptional activation functional score” value: 1.19 ± 0.37 for the first, 0.375 ± 0.67 for the second.

A152Y and E354G are within error of each other in “AIRE transcriptional activation functional score” value: 1.21 ± 0.48 for the first, 1.13 ± 0.17 for the second.

E354A and G219R are within error of each other in “AIRE transcriptional activation functional score” value: 0.949 ± 0.19 for the first, 0.858 ± 0.27 for the second.

Compared with G379N, S249T is lower in “AIRE transcriptional activation functional score” value: 1.23 ± 0.044 for the first, 0.256 ± 0.25 for the second.

First: A413N
Second: A413R
The “AIRE transcriptional activation functional score” value of the first is lower: 0.373 ± 0.085 for the first, 0.964 ± 0.14 for the second.

Going from A413K to R79W, the “AIRE transcriptional activation functional score” value falls from 0.606 ± 0.33 to 0.0958 ± 0.034.

L418Y and R9A are within error of each other in “AIRE transcriptional activation functional score” value: 1.42 ± 0.047 for the first, 1.09 ± 0.34 for the second.

E383A and S464C are within error of each other in “AIRE transcriptional activation functional score” value: 1.32 ± 0.086 for the first, 1.18 ± 0.15 for the second.

P361Y and A284G are within error of each other in “AIRE transcriptional activation functional score” value: 1.13 ± 0.14 for the first, 1.03 ± 0.21 for the second.

S338A and M388A are within error of each other in “AIRE transcriptional activation functional score” value: 0.683 ± 0.25 for the first, 0.871 ± 0.3 for the second.

S339W and A205G are within error of each other in “AIRE transcriptional activation functional score” value: 0.962 ± 0.052 for the first, 0.764 ± 0.2 for the second.

First: A496N
Second: F77G
The “AIRE transcriptional activation functional score” value of the first is higher: 0.726 ± 0.039 for the first, -0.0629 ± 0.48 for the second.

F77E and P460Y are within error of each other in “AIRE transcriptional activation functional score” value: 0.445 ± 0.46 for the first, 0.38 ± 0.15 for the second.

First: L495M
Second: L495G
The “AIRE transcriptional activation functional score” value of the first is lower: 0.186 ± 0.34 for the first, 1.05 ± 0.35 for the second.

L495S and T468P are within error of each other in “AIRE transcriptional activation functional score” value: 0.995 ± 0.25 for the first, 0.984 ± 0.27 for the second.

N86I and N86S are within error of each other in “AIRE transcriptional activation functional score” value: 0.0139 ± 0.67 for the first, 0.134 ± 0.59 for the second.

A138S and L308D are within error of each other in “AIRE transcriptional activation functional score” value: 0.847 ± 0.28 for the first, 0.755 ± 0.059 for the second.

L308P and C340I are within error of each other in “AIRE transcriptional activation functional score” value: 0.912 ± 0.24 for the first, 1.22 ± 0.088 for the second.

A540L and S372A are within error of each other in “AIRE transcriptional activation functional score” value: 0.964 ± 0.28 for the first, 1.16 ± 0.27 for the second.

P539N and S402A are within error of each other in “AIRE transcriptional activation functional score” value: 0.745 ± 0.36 for the first, 1.05 ± 0.24 for the second.

S402H and L10Y are within error of each other in “AIRE transcriptional activation functional score” value: 1.48 ± 0.23 for the first, 1.01 ± 0.24 for the second.

L10H and L397Q are within error of each other in “AIRE transcriptional activation functional score” value: 1.75 ± 0.32 for the first, 1.36 ± 0.082 for the second.

F100K and A19K are within error of each other in “AIRE transcriptional activation functional score” value: 0.809 ± 0.18 for the first, 0.838 ± 1.1 for the second.

First: E298T
Second: E298Q
The “AIRE transcriptional activation functional score” value of the first is lower: 0.228 ± 0.45 for the first, 1.15 ± 0.088 for the second.

K294P and L175M are within error of each other in “AIRE transcriptional activation functional score” value: 1.21 ± 0.14 for the first, 1.05 ± 0.1 for the second.

A61M and A61R are within error of each other in “AIRE transcriptional activation functional score” value: 0.552 ± 0.27 for the first, 0.646 ± 0.67 for the second.

In the case of A160F, the “AIRE transcriptional activation functional score” value is reported as 1.12 ± 0.29.

Source: the supplement of paper PMC12667976
